In patent US7563610 (Takeda / Millennium, dated 2009):

Target: the molecule itself
Assay: X-ray crystal structure (homodimer in the asymmetric unit)

B1: IspA (farnesyl pyrophosphate synthase) from E. coli, full length with non-cleavable N-terminal six histidine tag (enzyme)
chain: MGSDKIIHHHHHHTLMDFPQQLEACVKQANQALSRFIAPLPFQNTPVVETMQYGALLGGKRLRPFLVYATGHMFGVSTNTLDAPAAAVECIHAYSLIHDDLPAMDDDDLRRGLPTCHVKFGEANAILAGDALQTLAFSILSDADMPEVSDRDRISMISELASASGIAGMCGGQALDLDAEGKHVPLDALERIHRHKTGALIRAAVRLGALSAGDKGRRALPVLDKYAESIGLAFQVQDDILDVVGDTATLGKRQGADQQLGKSTYPALLGLEQARKKARDLIDDARQSLKQLAEQSLDTSALEALADYIIQRNK
notes: Two copies form the dimer in the crystal; also called FPPS
- binding result: binds
